Target: T1, purified α5ß1 ectodomain protein (human, UniProt P08648 42-995; P05556 21-728)
T1 construct: signal peptide in the construct; human integrin alpha-5, residues 1-995; human integrin beta-1, residues 1-728; Thrombin cleavage site between the integrin and the Fc; residues of the site may remain; also called purified and untagged α5ß1; α5ß1 integrin; not shown: Fc, C-terminal, cleaved
Assay: SPR; ProteOn XPR36, GLC chip; rhTie1 (4750 RU) and rhTie2 (6400 RU) amine-coupled; α5ß1 at 3 μM flowed at 60 μL/min for 3 min; 25 degrees Celsius; 20 mM Tris, 100 mM NaCl, 1 mM MnCl2, 2 mM CaCl2 pH 7.5; BSA channel subtracted
Settings: both partners purified

T1 sequence (P08648 42-995, chain 1 of 2): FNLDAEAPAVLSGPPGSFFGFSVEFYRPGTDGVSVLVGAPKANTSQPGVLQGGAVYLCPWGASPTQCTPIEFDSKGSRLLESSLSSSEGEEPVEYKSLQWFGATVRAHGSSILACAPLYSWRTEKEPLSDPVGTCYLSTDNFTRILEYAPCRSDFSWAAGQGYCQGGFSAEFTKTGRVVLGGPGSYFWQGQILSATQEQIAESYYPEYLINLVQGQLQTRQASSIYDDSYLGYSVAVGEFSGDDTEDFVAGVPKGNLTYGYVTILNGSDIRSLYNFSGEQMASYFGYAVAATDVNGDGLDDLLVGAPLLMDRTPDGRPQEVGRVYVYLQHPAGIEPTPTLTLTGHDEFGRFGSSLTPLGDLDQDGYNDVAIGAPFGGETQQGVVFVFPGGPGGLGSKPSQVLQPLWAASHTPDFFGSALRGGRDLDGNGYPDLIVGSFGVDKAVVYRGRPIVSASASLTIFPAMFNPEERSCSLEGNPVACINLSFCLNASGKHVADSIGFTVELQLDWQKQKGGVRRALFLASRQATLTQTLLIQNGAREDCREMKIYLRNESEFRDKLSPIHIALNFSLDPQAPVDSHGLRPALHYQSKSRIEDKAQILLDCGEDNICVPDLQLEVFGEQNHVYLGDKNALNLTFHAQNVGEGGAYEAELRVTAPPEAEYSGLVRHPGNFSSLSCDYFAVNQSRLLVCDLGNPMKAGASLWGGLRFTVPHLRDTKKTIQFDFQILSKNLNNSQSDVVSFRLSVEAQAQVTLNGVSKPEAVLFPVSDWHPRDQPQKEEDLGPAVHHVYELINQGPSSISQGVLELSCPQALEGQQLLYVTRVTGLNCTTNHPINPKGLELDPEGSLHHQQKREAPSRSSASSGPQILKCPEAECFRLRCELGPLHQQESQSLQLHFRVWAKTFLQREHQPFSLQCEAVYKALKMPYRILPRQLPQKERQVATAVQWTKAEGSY
T1 sequence (P05556 21-728, chain 2 of 2): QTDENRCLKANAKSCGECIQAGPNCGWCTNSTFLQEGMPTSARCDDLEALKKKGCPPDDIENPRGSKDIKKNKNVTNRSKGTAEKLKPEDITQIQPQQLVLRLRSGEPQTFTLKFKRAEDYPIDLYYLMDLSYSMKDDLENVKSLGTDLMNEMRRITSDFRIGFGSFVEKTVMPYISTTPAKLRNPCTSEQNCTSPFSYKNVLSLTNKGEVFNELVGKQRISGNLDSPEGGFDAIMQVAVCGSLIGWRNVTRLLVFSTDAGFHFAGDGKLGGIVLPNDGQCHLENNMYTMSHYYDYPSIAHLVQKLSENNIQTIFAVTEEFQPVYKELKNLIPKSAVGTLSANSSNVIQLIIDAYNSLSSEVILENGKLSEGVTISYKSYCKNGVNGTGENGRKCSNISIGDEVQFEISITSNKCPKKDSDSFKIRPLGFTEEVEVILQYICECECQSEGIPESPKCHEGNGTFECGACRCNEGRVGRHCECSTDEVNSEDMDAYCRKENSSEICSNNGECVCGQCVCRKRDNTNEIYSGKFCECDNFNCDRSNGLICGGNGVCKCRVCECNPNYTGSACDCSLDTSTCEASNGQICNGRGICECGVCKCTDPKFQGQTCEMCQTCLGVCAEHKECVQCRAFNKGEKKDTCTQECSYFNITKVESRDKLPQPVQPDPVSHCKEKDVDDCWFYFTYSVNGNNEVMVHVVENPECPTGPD

binding result: binds
B1: recombinant human Tie1 (rhTie1) extracellular domain, Fc tagged (Fc fusion, UniProt P35590 22-759, looked up)
chain: AVDLTLLANLRLTDPQRFFLTCVSGEAGAGRGSDAWGPPLLLEKDDRIVRTPPGPPLRLARNGSHQVTLRGFSKPSDLVGVFSCVGGAGARRTRVIYVHNSPGAHLLPDKVTHTVNKGDTAVLSARVHKEKQTDVIWKSNGSYFYTLDWHEAQDGRFLLQLPNVQPPSSGIYSATYLEASPLGSAFFRLIVRGCGAGRWGPGCTKECPGCLHGGVCHDHDGECVCPPGFTGTRCEQACREGRFGQSCQEQCPGISGCRGLTFCLPDPYGCSCGSGWRGSQCQEACAPGHFGADCRLQCQCQNGGTCDRFSGCVCPSGWHGVHCEKSDRIPQILNMASELEFNLETMPRINCAAAGNPFPVRGSIELRKPDGTVLLSTKAIVEPEKTTAEFEVPRLVLADSGFWECRVSTSGGQDSRRFKVNVKVPPVPLAAPRLLTKQSRQLVVSPLVSFSGDGPISTVRLHYRPQDSTMDWSTIVVDPSENVTLMNLRPKTGYSVRVQLSRPGEGGEGAWGPPTLMTTDCPEPLLQPWLEGWHVEGTDRLRVSWSLPLVPGPLVGDGFLLRLWDGTRGQERRENVSSPQARTALLTGLTPGTHYQLDVQLYHCTLLGPASPPAHVLLPPSGPPAPRHLHAQALSDSEIQLTWKHPEALPGPISKYVVEVQVAGGAGDPLWIDVDRPEETSTIIRGLNASTRYLFRMRASIQGLGDWSNTVEESTLGNGLQAEGPVQESRAAEEGLDQ
notes: human Tie1, full extracellular domain; amine-coupled to a GLC sensor chip; also called immobilized Tie1

— publication PMC5047623 (PLoS ONE, 2016)
